Test [1] has as its target T1, cynomolgus CD137, cell-surface (cynomolgus, UniProt Q07011 24-255 (human entry)).
T1 chain: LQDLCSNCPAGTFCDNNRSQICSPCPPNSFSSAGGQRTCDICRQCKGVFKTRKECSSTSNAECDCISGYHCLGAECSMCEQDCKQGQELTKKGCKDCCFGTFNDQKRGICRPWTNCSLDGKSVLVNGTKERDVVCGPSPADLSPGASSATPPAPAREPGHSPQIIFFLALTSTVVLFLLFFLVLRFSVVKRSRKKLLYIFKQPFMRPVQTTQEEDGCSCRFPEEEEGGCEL
In words: cell-based or functional assay.

In test [2] the target is T2, human PD-L1, cell-surface (human, UniProt Q9NZQ7 19-290).
T2 construct: also called HEK.hPD-L1; PD-L1 on MDA-MB-231, on Promega PD-L1 cells, on primary human cells
T2 sequence (Q9NZQ7 19-290): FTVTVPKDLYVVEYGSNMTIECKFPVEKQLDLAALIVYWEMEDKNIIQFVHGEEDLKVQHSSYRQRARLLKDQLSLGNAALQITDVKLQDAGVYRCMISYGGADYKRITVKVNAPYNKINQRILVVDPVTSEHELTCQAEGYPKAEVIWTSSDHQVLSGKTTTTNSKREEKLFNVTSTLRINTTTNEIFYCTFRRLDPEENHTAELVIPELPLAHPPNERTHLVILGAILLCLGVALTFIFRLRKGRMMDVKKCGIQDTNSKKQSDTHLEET
The test can be described thus: flow cytometry on activated primary human CD8+ T cells (carry PD-L1 and CD137); activated primary human CD8+ T cells (carry PD-L1 and little CD137). The method, then: (§1) CD137 is rapidly expressed to high levels on activated CD8⁺ T cells and also on activated CD4⁺ T cells with lower levels (Xue-Zhong Yu et al, 2013), therefore Pan T cells were stimulated for 24 hours using Dynabeads™ Human T-Activator CD3/CD28 beads (Thermo, 11132D) according to manufacturer's instructions.
(§2) Dead cells were excluded and the fluorescence in the APC channel (638 nm 660/20) was measured to show test antibody binding. The geometric Mean Fluorescence Intensity (GMFI) values were plotted vs the log concentration of antibody and the resulting curves were fitted using the log (agonist) vs response equation in GraphPad Prism.

The target of test [3] is T2, human PD-L1, cell-surface. In words: cell-based or functional assay.
Test [4] concerns the target T2, human PD-L1, cell-surface. In words: cell-based or functional assay. This is another data set of the same source.
For the next test, the target named is T3, hCD137-mFc-Avi (human; mouse, UniProt Q07011 24-186, biotin on the Avi sequence where the biotinylated form was used).
T3 construct: also called human CD137-mFc-Avi; dimeric human CD137; not shown: mouse IgG2a Fc domain (mIgG2a Fc)
T3 sequence (Q07011 24-186): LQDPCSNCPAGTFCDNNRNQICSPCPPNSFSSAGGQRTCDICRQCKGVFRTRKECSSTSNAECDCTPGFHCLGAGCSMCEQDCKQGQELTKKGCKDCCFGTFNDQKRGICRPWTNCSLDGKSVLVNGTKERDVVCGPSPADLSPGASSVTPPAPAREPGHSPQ
In words: SPR, mAb^2 captured by anti-human Fab, antigen in flow. As to the method:
(§3) The binding of the anti-human CD137/PD-L1 mAb² to recombinant dimeric human and cynomolgus CD137 antigens was also measured by SPR using a Biacore T200 processing unit (GE Healthcare).
(§4) Briefly, 20 μg/ml anti-human Fab antibody (GE Healthcare, Human Fab Capture kit 28958325) was coated on flow cells 1, 2, 3 and 4 of a Biacore sensor S chip CM5 (GE Healthcare, BR100530) achieving a final response of approximately 5000 RU. […] The recombinant dimeric antigens, human CD137-mFc-Avi or cynomolgus CD137-mFc-Avi (see Example 1.1 for antigen details) diluted in HBS-EP buffer, were injected on flow cell 1, 2, 3 or 4 as appropriate at a concentration range of 81 nM to 0.037 nM with 3-fold dilutions for 4 minutes at 70 μl/min and then allowed to dissociate in buffer for 10 minutes. Regeneration was achieved by injecting 10 mM glycine pH 2.1 (GE Healthcare, Human Fab Capture kit 28958325) for 60 seconds at a rate of 30 μl/min. Data analysis was performed as described in Example 9.1.
On the technique in general: In SPR one partner is held on a chip, and binding of the other changes the refractive index at the surface.

Another test addresses T4, cCD137-mFc-Avi (cynomolgus; mouse).
T4 construct: also called cynomolgus CD137-mFc-Avi; Cyno CD137-mFc-Avi; not shown: mouse IgG2a Fc domain (mIgG2a Fc)
T4 chain: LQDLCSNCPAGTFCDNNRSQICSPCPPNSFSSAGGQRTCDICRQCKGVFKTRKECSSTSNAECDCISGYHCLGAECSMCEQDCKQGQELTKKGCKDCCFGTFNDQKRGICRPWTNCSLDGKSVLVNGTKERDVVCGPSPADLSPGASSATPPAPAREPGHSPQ
The description is as above. As to the method: as §3, §4

The target of test [5] is T2, human PD-L1, cell-surface. In words: cell-based or functional assay. The source holds these as a separate data set.
Test [6] deals with T1, cynomolgus CD137, cell-surface. In words: flow cytometry on DO11.10.cCD137. As to the method: Non-specific binding was also assessed by testing binding to DO11.10 cells lacking CD137 expression.
(§5) Briefly, DO11.10, DO11.10.hCD137 or DO11.10.cCD137 suspensions were prepared in FACS buffer (DPBS containing (Gibco, 14190-094) containing 0.5% BSA (Sigma, A7906)) and seeded at 1×10⁵ cell/well in 100 μl in round bottomed 96-well plates (VWR, 734-1797). […] The washed cells were resuspended in the diluted antibody mixture, incubated at 4° C. for 30 minutes, and then washed once in FACS buffer. […] Dead cells were excluded and the fluorescence in the APC channel (638 nm 660/20) was measured. The geometric mean fluorescence intensity (GMFI) values were plotted vs the log concentration of antibody and the resulting curves were fitted using the log (agonist) vs response equation in GraphPad Prism.

Test [7] addresses T2, human PD-L1, cell-surface. The test can be described thus: flow cytometry on activated primary human CD4+ T cells (carry PD-L1 and CD137); activated primary human CD4+ T cells (carry PD-L1 and little CD137). As to the method:
as §1, §2
(In general: In flow cytometry, cells or beads pass a laser one at a time.)

In test [8] the target is T5, cynomolgus PD-L1, cell-surface (cynomolgus).
T5 construct: also called HEK.cPD-L1; HEK.cyPD-L1
T5 sequence (chain, as listed by the source limits assumed): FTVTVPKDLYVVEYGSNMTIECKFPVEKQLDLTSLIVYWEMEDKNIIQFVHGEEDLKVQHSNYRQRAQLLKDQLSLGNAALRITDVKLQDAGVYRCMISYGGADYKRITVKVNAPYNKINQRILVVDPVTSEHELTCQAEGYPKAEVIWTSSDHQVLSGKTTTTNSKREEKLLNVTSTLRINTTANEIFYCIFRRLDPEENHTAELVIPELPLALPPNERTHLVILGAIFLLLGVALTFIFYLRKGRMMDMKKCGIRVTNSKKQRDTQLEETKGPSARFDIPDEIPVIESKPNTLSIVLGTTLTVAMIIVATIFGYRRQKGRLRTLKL
The test can be described thus: flow cytometry on HEK.cPD-L1. The method, then: Non-specific binding was also assessed by testing binding to HEK293 parental cells lacking human PD-L1 (Flp-In T-Rex 293 cell line, Life Technologies, R780-07).
as §5, with “HEK293, HEK.hPD-L1 and HEK.cPD-L1” for “Briefly, DO11.10, DO11.10.hCD137 or DO11.10.cCD137”, “(DPBS” for “(DPBS containing”

Like-named read-outs stand apart in the source and are kept apart here.

The term EC50 denotes the concentration that produces a half-maximal response. Higher therefore signals weaker potency. A word on the Kd: it is the concentration at which binding is half-saturated. The low end stands for tighter binding, the high end for weaker binding.

B1: FS22-172-003-AA/E12v2 (bispecific antibody, human IgG1, kappa, L234A L235A)
heavy: EVQLVQSGAEVKRPGASVKVSCKASGYPFTSYGISWVRQAPGQGLEWMGWISAYSGGTNYAQKLQGRVTMTTDTSTSTAYMELRSLRSDDTAVYYCARDLFPTIFGVSYYYYWGQGTLVTVSSASTKGPSVFPLAPSSKSTSGGTAALGCLVKDYFPEPVTVSWNSGALTSGVHTFPAVLQSSGLYSLSSVVTVPSSSLGTQTYICNVNHKPSNTKVDKKVEPKSCDKTHTCPPCPAPEAAGGPSVFLFPPKPKDTLMISRTPEVTCVVVDVSHEDPEVKFNWYVDGVEVHNAKTKPREEQYNSTYRVVSVLTVLHQDWLNGKEYKCKVSNKALPAPIEKTISKAKGQPREPQVYTLPPSRDELPYIIPPYNQVSLTCLVKGFYPSDIAVEWESNGQPENNYKTTPPVLDSDGSFFLYSKLTVGADRWLEGNVFSCSVMHEALHNHYTQKSLSLSPG
light: DIQMTQSPSTLSASVRDRVIITCRASQSIGNRLAWYQHKPGKAPKLLIYEASTSETGVPSRFSGSGSGTDFTLTISSLQPEDFATYYCQQSYSTPYTFGQGTKLEIKRTVAAPSVFIFPPSDEQLKSGTASVVCLLNNFYPREAKVQWKVDNALQSGNSQESVTEQDSKDSTYSLSSTLTLSKADYEKHKVYACEVTHQGLSSPVTKSFNRGEC
notes: PD-L1 site in the Fab, CD137 site in the CH3, LALA; also called anti-human CD137/PD-L1 mAb^2
On to B1, for which the “EC50 (nM) (crosslinked), mIL-2 release, DO11.10.cCD137 with HEK.cyPD-L1” value in [1] worked out at 0.06 nM. For the same molecule, the “Emax (pg/ml) (crosslinked), mIL-2 release, DO11.10.cCD137 with HEK.cyPD-L1” value in test [1] came out at 11300 pg/mL. In addition, the EC50 in test [2] was found to be 0.9 nM; in [6] it was 7.39 nM; in test [7], 0.8 nM; in test [8], 0.7 nM. Moreover, the “EC50 (nM), IFN-γ release, human MLR” value amounted to 0.07 nM in [3] and 0.02 nM in test [4]. The “Emax (pg/ml), IFN-γ release, human MLR” value in [4] stood at 2630 pg/mL. Further, the Kd in the test with hCD137-mFc-Avi was 0.7 nM; with cCD137-mFc-Avi, 0.8 nM. The “EC50 (nM), mouse IL-2 release, DO11.10 / LK35.2 PD-L1 blockade assay” value in test [5] came out at 1.27 nM.
